Test results published in paper PMC9348755 (Science (New York, N.y.), 2022).

Assays:
[1] = target: HKU1 S protein (commercially available, recombinant) (human coronavirus HKU1, isolate not …, UniProt Q5MQD0); assay: ELISA; mAbs titrated on commercially available hCoV S proteins; EC50 (Fig. 1E); details: both partners purified
[2] = target: T1, 229E S protein (commercially available, recombinant) (human coronavirus 229E, strain of …); assay: as above; details: both partners purified
T1 chain: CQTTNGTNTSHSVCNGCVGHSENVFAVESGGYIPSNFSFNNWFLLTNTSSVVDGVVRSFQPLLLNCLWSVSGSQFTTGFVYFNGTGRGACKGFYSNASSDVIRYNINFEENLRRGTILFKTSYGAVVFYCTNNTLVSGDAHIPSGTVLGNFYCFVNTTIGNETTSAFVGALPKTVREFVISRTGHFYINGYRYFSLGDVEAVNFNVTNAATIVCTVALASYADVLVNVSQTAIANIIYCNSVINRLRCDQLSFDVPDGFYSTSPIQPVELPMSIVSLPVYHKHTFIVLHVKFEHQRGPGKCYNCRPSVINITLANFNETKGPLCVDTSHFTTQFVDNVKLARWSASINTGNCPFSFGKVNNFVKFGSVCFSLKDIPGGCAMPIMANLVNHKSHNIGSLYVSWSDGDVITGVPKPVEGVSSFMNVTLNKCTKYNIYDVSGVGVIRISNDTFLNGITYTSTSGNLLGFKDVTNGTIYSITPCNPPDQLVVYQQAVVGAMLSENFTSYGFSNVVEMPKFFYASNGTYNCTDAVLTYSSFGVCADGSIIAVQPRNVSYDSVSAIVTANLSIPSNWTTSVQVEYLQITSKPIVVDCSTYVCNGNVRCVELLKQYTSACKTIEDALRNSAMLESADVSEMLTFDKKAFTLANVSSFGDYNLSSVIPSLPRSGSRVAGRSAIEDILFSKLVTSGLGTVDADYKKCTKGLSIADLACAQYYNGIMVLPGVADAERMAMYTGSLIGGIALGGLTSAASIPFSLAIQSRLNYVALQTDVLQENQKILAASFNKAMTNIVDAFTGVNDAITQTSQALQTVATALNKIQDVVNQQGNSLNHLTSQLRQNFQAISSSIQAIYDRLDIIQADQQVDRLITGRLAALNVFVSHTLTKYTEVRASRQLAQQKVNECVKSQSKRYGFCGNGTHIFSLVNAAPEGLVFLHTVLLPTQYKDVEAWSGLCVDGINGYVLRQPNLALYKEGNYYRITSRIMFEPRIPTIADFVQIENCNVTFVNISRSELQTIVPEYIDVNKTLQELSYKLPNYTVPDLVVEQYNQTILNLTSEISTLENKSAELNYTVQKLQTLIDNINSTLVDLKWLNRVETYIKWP

[3] = target: SARS-CoV-2 S protein (commercially available, recombinant) (SARS-CoV-2 (Wuhan-Hu-1 assumed), UniProt P0DTC2); assay: as above; details: both partners purified
[4] = target: OC43 S protein (commercially available, recombinant) (human coronavirus OC43, strain not …, UniProt P36334); assay: as above; details: both partners purified
[5] = target: NL63 S protein (commercially available, recombinant) (human coronavirus NL63, strain of …, UniProt A0A1L2YVI8); assay: as above; details: both partners purified
[6] = target: T2, full length SARS-CoV-2 S Wuhan-Hu-1 on HEK293T cells (Severe acute respiratory syndrome …, UniProt P0DTC2); assay: flow cytometry on cells; details: one partner purified
T2 construct: source: HEK293T, transiently transfected, on the cell surface

229E S on HEK293T cells = target: T3, 229E S on HEK293T cells (Human coronavirus 229E, GenBank …); assay: flow cytometry on cells; details: one partner purified
T3 construct: source: HEK293T, transiently transfected, on the cell surface

[7] = target: T4, SARS-CoV S on HEK293T cells (Severe acute respiratory syndrome …, UniProt P59594); assay: flow cytometry on cells; details: one partner purified
T4 construct: source: HEK293T, transfected, on the cell surface

[8] = target: T5, MERS-CoV S on HEK293T cells (MERS-CoV, strain ; entry is …, UniProt K9N5Q8); assay: flow cytometry on cells; details: one partner purified
T5 construct: source: HEK293T, transfected, on the cell surface

NL63 S on HEK293T cells = NL63 S on HEK293T cells (Human coronavirus NL63, GenBank …, UniProt A0A1L2YVI8); assay: flow cytometry on cells; details: one partner purified
[9] = target: T6, SARS-CoV-2 S fusion peptide K811[…]825 (SARS-CoV-2); assay: ELISA; details: both partners purified
T6 construct: source: synthetic peptide
T6 chain: KPSKRSFIEDLLFNK

[10] = target: T6, SARS-CoV-2 S fusion peptide K811[…]825; assay: crystal structure; Fab in complex with the fusion peptide K811-K825; details: both partners purified

Measured: binding result

Chain of HKU1 S protein (commercially available, recombinant) (Q5MQD0 13-1356): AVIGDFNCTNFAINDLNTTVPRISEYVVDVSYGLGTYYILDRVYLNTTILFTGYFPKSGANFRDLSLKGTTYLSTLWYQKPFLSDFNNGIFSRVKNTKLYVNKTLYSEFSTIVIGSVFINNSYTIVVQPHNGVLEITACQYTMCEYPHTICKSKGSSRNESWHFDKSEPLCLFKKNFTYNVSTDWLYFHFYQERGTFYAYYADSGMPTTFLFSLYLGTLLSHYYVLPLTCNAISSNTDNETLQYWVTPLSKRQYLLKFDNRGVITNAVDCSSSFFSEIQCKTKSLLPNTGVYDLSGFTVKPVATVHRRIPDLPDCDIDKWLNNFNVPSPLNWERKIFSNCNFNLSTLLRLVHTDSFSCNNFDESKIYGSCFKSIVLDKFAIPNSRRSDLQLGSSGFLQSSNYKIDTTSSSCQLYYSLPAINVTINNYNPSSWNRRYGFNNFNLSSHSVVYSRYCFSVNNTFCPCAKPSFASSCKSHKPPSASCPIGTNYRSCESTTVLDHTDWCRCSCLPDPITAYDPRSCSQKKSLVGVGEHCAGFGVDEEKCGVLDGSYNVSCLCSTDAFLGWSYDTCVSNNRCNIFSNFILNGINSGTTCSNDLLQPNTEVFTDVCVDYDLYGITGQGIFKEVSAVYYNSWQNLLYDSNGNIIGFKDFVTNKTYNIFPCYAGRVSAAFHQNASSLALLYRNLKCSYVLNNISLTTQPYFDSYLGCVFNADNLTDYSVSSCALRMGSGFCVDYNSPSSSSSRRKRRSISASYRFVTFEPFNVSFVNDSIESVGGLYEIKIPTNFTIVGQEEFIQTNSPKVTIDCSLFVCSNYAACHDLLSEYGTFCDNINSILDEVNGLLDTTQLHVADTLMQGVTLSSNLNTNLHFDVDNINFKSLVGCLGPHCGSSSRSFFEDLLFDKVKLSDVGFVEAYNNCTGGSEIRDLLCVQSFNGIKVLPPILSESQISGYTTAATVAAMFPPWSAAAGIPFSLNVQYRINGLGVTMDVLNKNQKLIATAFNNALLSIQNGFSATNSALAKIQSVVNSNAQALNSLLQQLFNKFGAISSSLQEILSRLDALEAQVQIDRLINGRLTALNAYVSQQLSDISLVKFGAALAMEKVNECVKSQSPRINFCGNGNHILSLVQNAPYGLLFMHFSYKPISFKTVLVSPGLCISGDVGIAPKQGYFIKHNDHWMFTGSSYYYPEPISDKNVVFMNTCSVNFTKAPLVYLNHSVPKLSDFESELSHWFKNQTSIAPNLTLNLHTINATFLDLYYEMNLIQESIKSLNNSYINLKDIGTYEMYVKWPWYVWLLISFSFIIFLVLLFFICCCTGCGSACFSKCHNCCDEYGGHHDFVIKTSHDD
Chain of OC43 S protein (commercially available, recombinant) (P36334 14-1353): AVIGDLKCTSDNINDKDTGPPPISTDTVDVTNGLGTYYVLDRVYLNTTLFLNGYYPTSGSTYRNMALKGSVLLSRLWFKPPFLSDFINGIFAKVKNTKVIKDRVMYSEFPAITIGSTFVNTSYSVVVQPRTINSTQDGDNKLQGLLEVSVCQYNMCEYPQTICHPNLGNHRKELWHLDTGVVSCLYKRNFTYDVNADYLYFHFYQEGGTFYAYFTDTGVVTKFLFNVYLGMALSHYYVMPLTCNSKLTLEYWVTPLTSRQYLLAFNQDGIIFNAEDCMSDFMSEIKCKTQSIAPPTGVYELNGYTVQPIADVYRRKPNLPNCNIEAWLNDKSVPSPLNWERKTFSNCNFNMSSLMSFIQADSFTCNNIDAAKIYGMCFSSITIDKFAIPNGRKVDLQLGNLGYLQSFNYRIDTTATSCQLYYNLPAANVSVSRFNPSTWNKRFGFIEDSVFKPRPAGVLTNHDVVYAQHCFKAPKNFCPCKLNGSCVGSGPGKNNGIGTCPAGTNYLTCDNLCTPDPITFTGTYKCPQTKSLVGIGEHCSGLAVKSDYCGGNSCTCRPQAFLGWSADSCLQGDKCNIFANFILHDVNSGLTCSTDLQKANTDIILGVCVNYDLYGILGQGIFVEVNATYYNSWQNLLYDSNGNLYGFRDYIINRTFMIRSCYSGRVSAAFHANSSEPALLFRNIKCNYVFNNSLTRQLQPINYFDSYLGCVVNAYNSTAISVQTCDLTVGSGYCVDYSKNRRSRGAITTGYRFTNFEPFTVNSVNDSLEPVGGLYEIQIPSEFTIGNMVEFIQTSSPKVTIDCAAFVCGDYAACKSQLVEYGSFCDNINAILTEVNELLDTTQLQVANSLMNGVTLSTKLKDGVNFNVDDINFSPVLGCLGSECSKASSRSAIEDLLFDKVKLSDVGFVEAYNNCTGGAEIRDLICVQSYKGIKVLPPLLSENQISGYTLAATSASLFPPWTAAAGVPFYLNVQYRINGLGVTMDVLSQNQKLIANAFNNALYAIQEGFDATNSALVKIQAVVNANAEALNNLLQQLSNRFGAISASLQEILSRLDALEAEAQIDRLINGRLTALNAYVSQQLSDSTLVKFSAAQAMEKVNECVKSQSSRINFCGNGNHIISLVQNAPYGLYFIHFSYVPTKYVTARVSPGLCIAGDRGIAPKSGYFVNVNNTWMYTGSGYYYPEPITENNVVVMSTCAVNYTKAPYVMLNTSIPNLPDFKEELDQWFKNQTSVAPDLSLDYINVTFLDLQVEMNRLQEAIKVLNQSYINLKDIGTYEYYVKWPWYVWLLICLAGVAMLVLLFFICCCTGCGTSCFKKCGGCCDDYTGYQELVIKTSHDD
T3 sequence (P15423 16-1173): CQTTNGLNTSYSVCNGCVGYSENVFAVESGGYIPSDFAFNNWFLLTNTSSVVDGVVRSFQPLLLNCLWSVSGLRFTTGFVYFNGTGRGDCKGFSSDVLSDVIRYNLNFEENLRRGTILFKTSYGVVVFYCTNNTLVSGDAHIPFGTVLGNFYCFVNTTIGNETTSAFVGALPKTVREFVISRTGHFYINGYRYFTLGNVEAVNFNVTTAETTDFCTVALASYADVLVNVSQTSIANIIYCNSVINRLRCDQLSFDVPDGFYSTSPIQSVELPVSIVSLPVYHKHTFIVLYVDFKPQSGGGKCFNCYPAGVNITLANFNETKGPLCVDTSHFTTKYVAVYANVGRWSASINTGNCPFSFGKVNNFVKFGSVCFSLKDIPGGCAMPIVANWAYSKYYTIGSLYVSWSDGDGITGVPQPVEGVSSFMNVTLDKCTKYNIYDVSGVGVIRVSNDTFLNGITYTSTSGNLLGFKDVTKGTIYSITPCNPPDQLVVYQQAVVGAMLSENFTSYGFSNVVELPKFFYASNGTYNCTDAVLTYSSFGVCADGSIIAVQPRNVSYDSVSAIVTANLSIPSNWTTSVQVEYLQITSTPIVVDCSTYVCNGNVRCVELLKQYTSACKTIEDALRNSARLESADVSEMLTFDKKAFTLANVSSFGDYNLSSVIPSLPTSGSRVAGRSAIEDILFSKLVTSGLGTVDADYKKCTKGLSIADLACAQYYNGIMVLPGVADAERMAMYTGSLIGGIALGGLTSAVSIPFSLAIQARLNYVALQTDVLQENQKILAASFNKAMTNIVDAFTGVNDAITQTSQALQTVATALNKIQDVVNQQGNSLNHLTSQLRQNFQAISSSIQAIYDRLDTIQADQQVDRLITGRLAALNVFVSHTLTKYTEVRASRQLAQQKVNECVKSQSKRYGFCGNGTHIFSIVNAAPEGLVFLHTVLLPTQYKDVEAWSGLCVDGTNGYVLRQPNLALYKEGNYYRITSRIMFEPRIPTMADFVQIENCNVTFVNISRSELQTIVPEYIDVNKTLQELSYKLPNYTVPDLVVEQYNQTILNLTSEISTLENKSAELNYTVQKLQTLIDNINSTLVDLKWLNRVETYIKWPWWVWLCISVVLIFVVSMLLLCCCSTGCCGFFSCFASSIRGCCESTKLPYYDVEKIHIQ

B1: VN01H1 mAb (antibody, V domains shown)
VH: EVQLVESGGGLVLPGGSLRLSCSASGFTFSDFSMHWVRQSPGKGLEYVSAITSSGSSTYYPDSVKGRFTISRDNSKNTLYLQMGSLRVEDTAVYWCVKNSDVFRFPHLYFDVWGRGTLVTVSS
VL: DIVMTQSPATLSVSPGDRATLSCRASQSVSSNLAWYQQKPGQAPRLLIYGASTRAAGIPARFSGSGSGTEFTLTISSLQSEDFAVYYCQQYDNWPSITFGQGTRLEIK
notes: also called Group 3 mAb; fusion peptide-specific mAb
not listed: [10]
binds: all other assays above

B2: VN01H1 Fab (Fab, V domains shown)
VH: EVQLVESGGGLVLPGGSLRLSCSASGFTFSDFSMHWVRQSPGKGLEYVSAITSSGSSTYYPDSVKGRFTISRDNSKNTLYLQMGSLRVEDTAVYWCVKNSDVFRFPHLYFDVWGRGTLVTVSS
VL: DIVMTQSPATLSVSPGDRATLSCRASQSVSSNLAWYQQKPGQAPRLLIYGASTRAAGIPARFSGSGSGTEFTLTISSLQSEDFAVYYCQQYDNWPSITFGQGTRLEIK
binds: [10]

B3: C13C9 mAb (antibody, V domains shown)
VH: EVQLVQSGPEVKKPGTSARVSCKASGFTSKNTALQWVRQARGQPLEWMGWIDISNYITNYAQKFRGRLTITWDLSASMAYMELSSLRSEDTAVYYCAAVGKDDDVLTGGNKYFDHWGQGTLVTVSS
VL: SYELTQPPSVSVSPGQTARITCSGDALPKKYAYWYQQKSGQAPVLVIHEDDKRPSGIPGRFSASSSGTTATLTISGAQVEDEADYYCYSTDTNDNHAFGSGTKLTVL
notes: as for B1
not listed: [10]
binds: all other assays above

B4: C13C9 Fab (Fab, V domains shown)
VH: EVQLVQSGPEVKKPGTSARVSCKASGFTSKNTALQWVRQARGQPLEWMGWIDISNYITNYAQKFRGRLTITWDLSASMAYMELSSLRSEDTAVYYCAAVGKDDDVLTGGNKYFDHWGQGTLVTVSS
VL: SYELTQPPSVSVSPGQTARITCSGDALPKKYAYWYQQKSGQAPVLVIHEDDKRPSGIPGRFSASSSGTTATLTISGAQVEDEADYYCYSTDTNDNHAFGSGTKLTVL
binds: [10]

B5: C77G12 mAb (antibody, V domains shown)
VH: EVQLVESGGGVVQPGRSLRISCAVSGFTFGSYAMHWVRQAPGKGLEWVGVMSSDGHNEYYADSVKGRFTISRDNSRNKLYLEMNNLRVDDTAVFYCARGSDYVDDSPPLHYWGQGTLVTVSS
VL: DIQLTQSPSSLSASIGDRVTITCRASQDIANKLAWFQQAPGKAPKSLIYAASRLQSGVPSQFSGSGSGTDFTLTIESLQAGDFATYFCQQYDSFPFTFGPGTKVDVK
notes: as for B1
not listed: [10]
binds: all other assays above

B6: C77G12 Fab (Fab, V domains shown)
VH: EVQLVESGGGVVQPGRSLRISCAVSGFTFGSYAMHWVRQAPGKGLEWVGVMSSDGHNEYYADSVKGRFTISRDNSRNKLYLEMNNLRVDDTAVFYCARGSDYVDDSPPLHYWGQGTLVTVSS
VL: DIQLTQSPSSLSASIGDRVTITCRASQDIANKLAWFQQAPGKAPKSLIYAASRLQSGVPSQFSGSGSGTDFTLTIESLQAGDFATYFCQQYDSFPFTFGPGTKVDVK
binds: [10]

B7: VP12E7 mAb (antibody, V domains shown)
VH: QVQLVQSGGGVVQPGESLRLSCSGSGFTFNNYIMHWVRQAPGQGLDYVSGIGSDGRNTNYGDSVKGRFTISRDNSKDTLYLQMTSLRAEDTAFYYCVKGLDVLRFLDLSTPSGERLDAFDIWGQGTMVTVSS
VL: DIVMTQSPSFLSASVGDRVTITCRASQGISNYLAWYQQKPGKAPHLLIYAASTLQSGVPSRFSGSGSGTEFTLTISSLQPEDFATYYCQQLNSYPLFTFGPGTKVDIE
notes: as for B1
not listed: [10]
binds: all other assays above

B8: VP12E7 Fab (Fab, V domains shown)
VH: QVQLVQSGGGVVQPGESLRLSCSGSGFTFNNYIMHWVRQAPGQGLDYVSGIGSDGRNTNYGDSVKGRFTISRDNSKDTLYLQMTSLRAEDTAFYYCVKGLDVLRFLDLSTPSGERLDAFDIWGQGTMVTVSS
VL: DIVMTQSPSFLSASVGDRVTITCRASQGISNYLAWYQQKPGKAPHLLIYAASTLQSGVPSRFSGSGSGTEFTLTISSLQPEDFATYYCQQLNSYPLFTFGPGTKVDIE
binds: [10]

B9: C13B8 mAb (antibody, V domains shown)
VH: QVQLQESGPGLVQPSQTLTLTCTVSGDSISNEDYHWTWIRQHPGKGLEWMGYLQYSGNTNYNPSLKSRMTISVDTSKNQFSLRLNSVTAADTAVYFCATSIVLTGMSNKIQPFDYWGQGTLVTVSS
VL: SYELTQPPSVSVSPGQMARITCSGEALPKKYAYWYQQKGGQFPVLVIYKDTERPSGIPERFSGSSSGTIVTLTISGVQPEDEADYYCLSADTSGTWVFGGGTKLTVL
notes: as for B1
not listed: [10]
binds: all other assays above

B10: C13B8 Fab (Fab, V domains shown)
VH: QVQLQESGPGLVQPSQTLTLTCTVSGDSISNEDYHWTWIRQHPGKGLEWMGYLQYSGNTNYNPSLKSRMTISVDTSKNQFSLRLNSVTAADTAVYFCATSIVLTGMSNKIQPFDYWGQGTLVTVSS
VL: SYELTQPPSVSVSPGQMARITCSGEALPKKYAYWYQQKGGQFPVLVIYKDTERPSGIPERFSGSSSGTIVTLTISGVQPEDEADYYCLSADTSGTWVFGGGTKLTVL
binds: [10]
